Measurements from patent US20170333570A1 (FORMATION BIOLOGICS, published 2017).

Molecular target: human epidermal growth factor receptor (hEGFR) (human, UniProt P00533 25-1210)
Test: cell-based or functional assay

B1: 992-DM1 (antibody, V domains shown)
VH: EVQLQQPGSELVRPGASVKLSCKASGYTFTSYWMHWVKQRPGQGLEWIGNIYPGSRSTNYDEKFKSKATLTVDTSSSTAYMQLSSLTSEDSAVYYCTRNGDYYVSSGDAMDYWGQGTSVTVS
VL: DIQMTQTTSSLSASLGDRVTISCRTSQDIGNYLNWYQQKPDGTVKLLIYYTSRLHSGVPSRFSGSGSGTDFSLTINNVEQEDVATYFCQHYNTVPPTFGGGTKLEIKR
modifications: DM1 conjugated through SMCC linker; conjugated residues and chain not stated
  IC50 (nM), cell growth/survival (sulforhodamine B), A549: 2.2 nM
  IC50 (nM), cell growth/survival (sulforhodamine B), NCI-H226: 1.07 nM
  IC50 (nM), cell growth/survival (sulforhodamine B), NCI-H292: 0.22 nM

B2: 1024-DM1 (antibody, V domains shown)
VH: QVQLQQPGAELVEPGGSVKLSCKASGYTFTSHWMHWVKQRPGQGLEWIGEINPSSGRNNYNEKFKSKATLTVDKSSSTAYMQFSSLTSEDSAVYYCVRYYGYDEAMDYWGQGTSVTVS
VL: DIVMTQAAFSNPVTLGTSASISCRSSKSLLHSNGITYLYWYLQKPGQSPQLLIYQMSNLASGVPDRFSSSGSGTDFTLRISRVEAEDVGVYYCAQNLELPYTFGGGTKLEIKR
modifications: DM1 conjugated through SMCC linker; conjugated residues and chain not stated
  IC50 (nM), cell growth/survival (sulforhodamine B), A549: 24.7 nM
  IC50 (nM), cell growth/survival (sulforhodamine B), NCI-H226: 1.89 nM
  IC50 (nM), cell growth/survival (sulforhodamine B), NCI-H292: 0.09 nM
